# Assay results published in paper doi:10.1101/2022.05.07.491048.
# Read-outs that look alike come from different tables or passages of the source.
# Tests used:
# b-His6-BAK_(16-186) [1] = molecular target: b-His6-BAK_(16-186) (UniProt Q16611); assay: fluorescence polarisation
# b-His6-BAK_(16-186) [2] = molecular target: b-His6-BAK_(16-186) (UniProt Q16611); assay: BLI
# b-His6-BAK_(16-186) [3] = molecular target: b-His6-BAK_(16-186) (UniProt Q16611)
# UniProt Q16611, sequence (Q16611 16-186): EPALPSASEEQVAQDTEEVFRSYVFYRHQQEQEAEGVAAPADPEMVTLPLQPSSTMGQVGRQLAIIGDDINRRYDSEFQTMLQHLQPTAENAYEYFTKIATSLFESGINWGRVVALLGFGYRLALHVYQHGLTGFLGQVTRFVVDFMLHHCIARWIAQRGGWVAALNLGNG
Substance,Kd (b-His6-BAK_(16-186) [1]) [µM],koff (b-His6-BAK_(16-186) [2]) [s⁻¹],Kd (b-His6-BAK_(16-186) [3]) [µM]
"PXT1 BH3 peptide, 5-FAM labelled",11,,
"TRPM7 BH3 peptide, 5-FAM labelled",> 20,,
"BNIP5 BH3 peptide, 5-FAM labelled",0.4,,0.424
"SLC19A1 BH3 peptide, 5-FAM labelled",> 20,,

# More lines, now with the values ahead:
Kd (b-His6-BAK_(16-186) [1]) [µM],koff (b-His6-BAK_(16-186) [2]) [s⁻¹],Kd (b-His6-BAK_(16-186) [3]) [µM],Substance
> 20,,,"CASP3 BH3 peptide, 5-FAM labelled"
> 20,,,"TRIM58 BH3 peptide, 5-FAM labelled"
> 20,,,"TERT BH3 peptide, 5-FAM labelled"
> 20,,,"NBEAL2 BH3 peptide, 5-FAM labelled"
> 20,,,"SPNS1 BH3 peptide, 5-FAM labelled"
,0.16,,His6-SUMO-BNIP5 BH3 (peptide)
